Results: article PMC9482650, “Quantitative fragmentomics allow affinity mapping of interactomes” (Nature Communications, 2022)

T1: DFNB31_1, Q9P202
T1 sequence (Q9P202 135-233, limits assumed, looked up): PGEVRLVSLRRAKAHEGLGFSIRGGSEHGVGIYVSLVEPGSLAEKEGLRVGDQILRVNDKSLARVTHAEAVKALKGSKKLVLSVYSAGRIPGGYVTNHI

T2: NHERF3_4, Q5T2W1
T2 sequence (Q5T2W1 373-468, limits assumed, looked up): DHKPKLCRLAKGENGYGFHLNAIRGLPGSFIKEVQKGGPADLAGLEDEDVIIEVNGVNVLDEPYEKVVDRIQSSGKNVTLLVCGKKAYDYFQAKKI

T3: TIAM2, Q8IVF5
T3 sequence (Q8IVF5 885-986, limits assumed, looked up): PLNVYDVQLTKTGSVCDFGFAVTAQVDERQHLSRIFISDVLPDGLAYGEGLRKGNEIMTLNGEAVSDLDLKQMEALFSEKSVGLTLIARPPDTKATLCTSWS

T4: ARHGEF11, O15085
T4 sequence (O15085 42-136, limits assumed, looked up): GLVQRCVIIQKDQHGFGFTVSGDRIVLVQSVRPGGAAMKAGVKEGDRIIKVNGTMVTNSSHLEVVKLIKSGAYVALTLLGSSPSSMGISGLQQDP

T5: APBA2_1, Q99767
T5 sequence (Q99767 563-664, limits assumed, looked up): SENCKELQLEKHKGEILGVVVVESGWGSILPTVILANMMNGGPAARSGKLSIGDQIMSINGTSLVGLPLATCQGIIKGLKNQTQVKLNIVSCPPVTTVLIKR

T6: DLG3_1, Q92796
T6 sequence (Q92796 125-227, limits assumed, looked up): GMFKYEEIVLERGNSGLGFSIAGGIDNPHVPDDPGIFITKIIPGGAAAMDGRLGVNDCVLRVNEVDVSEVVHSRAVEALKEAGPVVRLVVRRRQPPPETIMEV

T7: MPDZ_12, O75970
T7 sequence (O75970 1857-1958, limits assumed, looked up): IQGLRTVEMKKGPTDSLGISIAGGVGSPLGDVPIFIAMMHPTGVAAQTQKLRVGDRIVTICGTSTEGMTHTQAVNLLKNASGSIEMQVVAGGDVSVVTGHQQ

T8: DFNB31_3, Q9P202
T8 sequence (Q9P202 811-907, limits assumed, looked up): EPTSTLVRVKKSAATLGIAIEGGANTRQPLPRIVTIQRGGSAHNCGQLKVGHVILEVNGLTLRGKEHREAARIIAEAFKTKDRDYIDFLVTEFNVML

T9: LRRC7, Q96NW7
T9 sequence (Q96NW7 1440-1537, limits assumed, looked up): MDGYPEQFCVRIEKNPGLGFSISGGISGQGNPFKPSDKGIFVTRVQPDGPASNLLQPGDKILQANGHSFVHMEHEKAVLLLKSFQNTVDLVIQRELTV

T10: LIN7C, Q9NUP9
T10 sequence (Q9NUP9 88-185, limits assumed, looked up): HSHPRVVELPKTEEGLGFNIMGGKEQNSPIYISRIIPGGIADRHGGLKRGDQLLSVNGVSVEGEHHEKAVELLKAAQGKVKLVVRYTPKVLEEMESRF

T11: PTPN13_1, Q12923
T11 sequence (Q12923 1088-1188, limits assumed, looked up): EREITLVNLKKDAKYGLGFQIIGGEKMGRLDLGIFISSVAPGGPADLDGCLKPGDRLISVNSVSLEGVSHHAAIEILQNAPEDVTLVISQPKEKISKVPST

T12: PDZRN3_1, Q9UPQ7
T12 sequence (Q9UPQ7 244-349, limits assumed, looked up): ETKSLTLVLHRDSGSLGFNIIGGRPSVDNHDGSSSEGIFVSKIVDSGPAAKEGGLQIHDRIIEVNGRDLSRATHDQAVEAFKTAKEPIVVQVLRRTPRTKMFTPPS


Key:
Assay in all cases: holdup assay
Design in all cases: key: below the threshold = too weak to quantify, mostly under pKd 3.1 to 4
Details in all cases: plain residues with an end cap or a label only (N-terminal biotin on a linker: ado-ado)
[1] = target: T1, DFNB31_1, Q9P202
[2] = target: T2, NHERF3_4, Q5T2W1
[3] = target: DLG1_3, Q12959
DLG1_3, Q12959, sequence (Q12959 457-571): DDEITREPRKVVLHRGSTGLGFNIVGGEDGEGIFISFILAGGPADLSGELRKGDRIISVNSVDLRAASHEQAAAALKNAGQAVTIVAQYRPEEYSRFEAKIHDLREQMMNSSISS

[4] = target: MAGI2_6, Q86UL8
MAGI2_6, Q86UL8, sequence (Q86UL8 1141-1229): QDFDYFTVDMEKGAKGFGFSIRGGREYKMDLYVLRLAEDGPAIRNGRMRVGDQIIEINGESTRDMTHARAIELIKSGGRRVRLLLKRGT

[5] = target: NHERF4_4, Q86UT5
NHERF4_4, Q86UT5, sequence (Q86UT5 464-550): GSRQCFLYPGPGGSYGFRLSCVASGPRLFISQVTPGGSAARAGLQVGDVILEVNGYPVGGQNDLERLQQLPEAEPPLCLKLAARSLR

[6] = target: T3, TIAM2, Q8IVF5
[7] = target: Inadl_9, Q8NI35
Inadl_9, Q8NI35, sequence (Q8NI35 1530-1615): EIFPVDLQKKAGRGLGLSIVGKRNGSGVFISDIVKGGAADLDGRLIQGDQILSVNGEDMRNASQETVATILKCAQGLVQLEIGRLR

[8] = target: T4, ARHGEF11, O15085
[9] = target: T5, APBA2_1, Q99767
[10] = target: DLG1_2, Q12959
DLG1_2, Q12959, sequence (Q12959 314-412): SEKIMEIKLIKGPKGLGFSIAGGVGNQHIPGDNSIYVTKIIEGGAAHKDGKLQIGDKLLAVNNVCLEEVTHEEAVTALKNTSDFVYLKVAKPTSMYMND

[11] = target: NHERF2_2, Q15599
NHERF2_2, Q15599, sequence (Q15599 142-238): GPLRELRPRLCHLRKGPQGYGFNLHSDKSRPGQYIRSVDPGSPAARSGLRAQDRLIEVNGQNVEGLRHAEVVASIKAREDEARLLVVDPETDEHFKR

[12] = target: HTRA2, O43464
HTRA2, O43464, sequence (O43464 355-458): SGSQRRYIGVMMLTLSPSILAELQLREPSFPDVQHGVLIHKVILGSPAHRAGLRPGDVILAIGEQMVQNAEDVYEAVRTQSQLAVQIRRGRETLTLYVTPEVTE

[13] = target: T6, DLG3_1, Q92796
[14] = target: MAST2, Q6P0Q8
MAST2, Q6P0Q8, sequence (Q6P0Q8 1099-1202): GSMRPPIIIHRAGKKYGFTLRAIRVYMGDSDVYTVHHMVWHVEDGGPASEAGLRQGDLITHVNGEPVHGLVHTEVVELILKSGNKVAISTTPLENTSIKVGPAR

[15] = target: Inadl_1, Q8NI35
Inadl_1, Q8NI35, sequence (Q8NI35 113-229): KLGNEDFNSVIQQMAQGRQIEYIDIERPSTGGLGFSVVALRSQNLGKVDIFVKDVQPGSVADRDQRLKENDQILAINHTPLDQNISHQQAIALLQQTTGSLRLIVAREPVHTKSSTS

[16] = target: T7, MPDZ_12, O75970
[17] = target: MAGI1_1, Q96QZ7
MAGI1_1, Q96QZ7, sequence (Q96QZ7 1-106): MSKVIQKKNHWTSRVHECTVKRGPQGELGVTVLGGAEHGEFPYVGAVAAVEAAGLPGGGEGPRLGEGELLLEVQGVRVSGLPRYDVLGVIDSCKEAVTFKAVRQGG

[18] = target: T8, DFNB31_3, Q9P202
[19] = target: T9, LRRC7, Q96NW7
[20] = target: TJP1_3, Q07157
TJP1_3, Q07157, sequence (Q07157 416-512): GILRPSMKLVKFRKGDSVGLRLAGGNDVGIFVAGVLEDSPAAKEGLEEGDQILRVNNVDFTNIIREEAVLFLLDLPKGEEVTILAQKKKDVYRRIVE

[21] = target: T10, LIN7C, Q9NUP9
[22] = target: AHNAK1, Q09666
AHNAK1, Q09666, sequence (Q09666 4-100): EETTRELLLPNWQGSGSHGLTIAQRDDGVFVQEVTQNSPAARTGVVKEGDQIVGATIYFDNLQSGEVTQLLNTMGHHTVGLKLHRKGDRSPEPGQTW

[23] = target: LNX1_3, Q8TBB1
LNX1_3, Q8TBB1, sequence (Q8TBB1 500-596): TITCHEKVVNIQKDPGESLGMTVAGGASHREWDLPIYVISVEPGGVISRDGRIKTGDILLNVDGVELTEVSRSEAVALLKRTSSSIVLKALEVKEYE

[24] = target: T11, PTPN13_1, Q12923
[25] = target: NHERF4_2, Q86UT5
NHERF4_2, Q86UT5, sequence (Q86UT5 220-308): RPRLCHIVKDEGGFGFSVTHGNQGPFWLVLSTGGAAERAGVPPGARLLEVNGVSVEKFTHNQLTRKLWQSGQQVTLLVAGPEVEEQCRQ

[26] = target: T12, PDZRN3_1, Q9UPQ7

Row | pKd [1] | pKd [2] | pKd [3] | pKd [4] | pKd [5] | pKd [6] | pKd [7] | pKd [8] | pKd [9] | pKd [10] | pKd [11] | pKd [12] | pKd [13] | pKd [14] | pKd [15] | pKd [16] | pKd [17] | pKd [18] | pKd [19] | pKd [20] | Binder | further results
1 | 3.77 | 4.18 | below the threshold | 4.82 | 4.16 | 3.6 | 3.99 | 5.32 | below the threshold | below the threshold | 5.19 | 4.73 | below the threshold | 5.6 | 4.54 | 4.98 | 3.65 | 5.37 | 4.17 | below the threshold | LDKESFLTWL [YAP1, P46937] | pKd [21]: below the threshold; pKd [22]: below the threshold; pKd [23]: below the threshold; pKd [24]: below the threshold; pKd [25]: below the threshold; pKd [26]: 3.73
2 | 3.72 | 3.49 | 3.71 | 4.06 | below the threshold | 3.92 | below the threshold | 3.59 | below the threshold | 4.54 | below the threshold | below the threshold | 3.77 | 4.86 | below the threshold | below the threshold | 3.53 | 3.92 | below the threshold | below the threshold | NRVDSKETEC [ADAM17, P78536] | pKd [21]: 3.81; pKd [22]: below the threshold; pKd [23]: below the threshold; pKd [24]: below the threshold; pKd [25]: below the threshold; pKd [26]: 3.57
3 | below the threshold | below the threshold | below the threshold | below the threshold | below the threshold | 3.8 | 3.69 | 4.37 | below the threshold | below the threshold | below the threshold | below the threshold | below the threshold | 4.04 | below the threshold | below the threshold | below the threshold | below the threshold | below the threshold | below the threshold | GDGLDDEIAV [NOS1AP, O75052] | pKd [21]: below the threshold; pKd [22]: below the threshold; pKd [23]: below the threshold; pKd [24]: below the threshold; pKd [25]: below the threshold; pKd [26]: below the threshold
4 | below the threshold | 4.52 | below the threshold | below the threshold | below the threshold | below the threshold | below the threshold | below the threshold | below the threshold | below the threshold | 4.81 | below the threshold | below the threshold | 5.38 | below the threshold | below the threshold | below the threshold | 3.88 | below the threshold | below the threshold | AEDEEIQTKM [UNC93A, Q86WB7] | pKd [21]: below the threshold; pKd [22]: below the threshold; pKd [23]: below the threshold; pKd [24]: below the threshold; pKd [25]: below the threshold; pKd [26]: below the threshold
5 | below the threshold | below the threshold | below the threshold | 3.76 | 4.07 | 5.1 | 4.51 | 4.55 | below the threshold | 3.52 | below the threshold | 4.6 | below the threshold | 4.61 | 4.25 | below the threshold | below the threshold | 3.52 | 3.52 | 3.67 | SVISRREWYV [NECTIN3, Q9NQS3] | pKd [21]: 3.95; pKd [22]: below the threshold; pKd [23]: 4.81; pKd [24]: below the threshold; pKd [25]: below the threshold; pKd [26]: below the threshold
6 | below the threshold | below the threshold | below the threshold | below the threshold | below the threshold | below the threshold | 3.55 | 4.13 | below the threshold | 4.23 | below the threshold | below the threshold | below the threshold | 5.05 | below the threshold | below the threshold | below the threshold | below the threshold | below the threshold | below the threshold | QNRIITKTDV [SMCHD1, A6NHR9] | pKd [21]: 3.94; pKd [22]: below the threshold; pKd [23]: below the threshold; pKd [24]: below the threshold; pKd [25]: below the threshold; pKd [26]: below the threshold
